# Laboratory results: patent publication US20080039336A1
# Target: TRPM4 of rat-derived INS-1 and RINm5F cells (endogenous) (rat) (UniProt Q9ESQ5)
# Experiment: cell-based or functional assay
# Chain of TRPM4 of rat-derived INS-1 and RINm5F cells (endogenous) (rat) (Q9ESQ5 whole entry): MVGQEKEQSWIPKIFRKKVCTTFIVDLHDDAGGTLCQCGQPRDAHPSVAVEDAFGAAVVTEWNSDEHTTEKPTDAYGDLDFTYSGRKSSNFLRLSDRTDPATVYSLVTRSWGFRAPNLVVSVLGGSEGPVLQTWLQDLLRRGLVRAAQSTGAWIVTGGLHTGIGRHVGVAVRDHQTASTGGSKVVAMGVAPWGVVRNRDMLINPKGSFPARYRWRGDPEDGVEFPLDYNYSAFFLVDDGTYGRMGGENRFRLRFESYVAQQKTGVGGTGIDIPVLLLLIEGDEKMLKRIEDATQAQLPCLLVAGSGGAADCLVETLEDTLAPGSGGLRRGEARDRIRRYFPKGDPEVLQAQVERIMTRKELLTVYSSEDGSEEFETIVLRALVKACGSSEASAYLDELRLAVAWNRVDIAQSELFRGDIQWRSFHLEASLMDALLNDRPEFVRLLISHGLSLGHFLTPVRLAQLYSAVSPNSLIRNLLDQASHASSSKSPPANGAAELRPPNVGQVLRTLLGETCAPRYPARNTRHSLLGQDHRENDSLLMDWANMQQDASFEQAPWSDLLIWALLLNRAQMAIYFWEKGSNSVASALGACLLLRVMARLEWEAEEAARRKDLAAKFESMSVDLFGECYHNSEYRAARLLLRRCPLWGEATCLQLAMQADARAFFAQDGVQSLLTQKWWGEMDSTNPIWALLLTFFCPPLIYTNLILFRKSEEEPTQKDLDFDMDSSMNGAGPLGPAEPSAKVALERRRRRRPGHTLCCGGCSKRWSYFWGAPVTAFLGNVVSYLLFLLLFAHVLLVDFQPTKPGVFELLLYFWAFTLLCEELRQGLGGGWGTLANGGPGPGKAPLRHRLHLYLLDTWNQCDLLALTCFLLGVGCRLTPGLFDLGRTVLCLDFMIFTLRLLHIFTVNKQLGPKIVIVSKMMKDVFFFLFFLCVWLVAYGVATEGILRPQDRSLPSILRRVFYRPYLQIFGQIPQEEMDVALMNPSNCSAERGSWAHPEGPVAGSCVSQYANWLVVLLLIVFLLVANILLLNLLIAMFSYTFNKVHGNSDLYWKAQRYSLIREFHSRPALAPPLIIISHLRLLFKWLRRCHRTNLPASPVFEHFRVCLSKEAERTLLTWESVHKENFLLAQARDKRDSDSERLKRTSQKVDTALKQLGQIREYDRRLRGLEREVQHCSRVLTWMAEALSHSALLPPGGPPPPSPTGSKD
substance,measurement,value
ΔN-TRPM4 (from UniProt Q8TD43 178-1214),"insulin secretion of INS-1 cells at 25 mM glucose, fold over basal 4 mM, static incubation (mock-transfected control ~2.2-fold)",1.3 fold
